How the values were obtained:
KIT WT D4-5蛋白 = target: T1, KIT WT D4-5蛋白 (human, UniProt P10721 309-519, limits assumed); experiment: SPR, Biacore T200, 3G2 amine-coupled on CM5, KIT WT D4-5 as analyte (3.125-100 nM)
T1 construct: domain: 第4、5个Ig结构域 (D4-5); Expressed in HEK293 cells by BacMam; also called KIT WT的第4、5个结构域

KIT ITD D4-5蛋白 = target: T2, KIT ITD D4-5蛋白 (human, UniProt P10721 309-519); experiment: SPR, Biacore T200, 3G2 amine-coupled on CM5, KIT ITD D4-5 as analyte (3.125-100 nM)
T2 chain: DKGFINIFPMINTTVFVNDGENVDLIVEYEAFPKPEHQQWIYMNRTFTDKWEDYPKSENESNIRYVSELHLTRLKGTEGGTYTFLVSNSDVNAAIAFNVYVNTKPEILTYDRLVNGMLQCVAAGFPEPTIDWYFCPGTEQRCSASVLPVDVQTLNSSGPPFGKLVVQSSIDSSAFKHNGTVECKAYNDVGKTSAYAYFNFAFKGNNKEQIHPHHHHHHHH

[1] = target: 全长KIT WT (Ba/F3稳定细胞系表面) (human) (UniProt P10721); experiment: cell-based or functional assay
[2] = target: 全长KIT ITD (Ba/F3稳定细胞系表面) (human) (UniProt P10721); experiment: cell-based or functional assay

- Kd (KIT WT D4-5蛋白): 154 nM
- Kd (KIT ITD D4-5蛋白): 17.1 nM
- percent apoptosis of KIT WT Ba/F3 cells with 3G2 [1]: 10.9%
- percent of KIT ITD Ba/F3 cells in early apoptosis at 10 nM 3G2 [2]: 41%
- percent of KIT ITD Ba/F3 cells in late apoptosis at 10 nM 3G2 [2]: 14.5%
- percent of KIT ITD Ba/F3 cells in programmed apoptosis at 10 nM 3G2 (Annexin V-FITC/7-AAD) [2]: 55.5%
B1: 单克隆抗体3G2 (antibody, V domains shown)
VH: EVQLQESGPGLVKPSQSLSLTCTVAGYSITSDYAWNWIRQFPGNRLEWVGYISYSGSTSYNPSLKSRISITRDTSQNQFFLQLNSVTTEDTATYYCTRWRYRYTLAMDYWGQGTSVTVSS
VL: DIVLTQSPAITAASLGQKVTITCSASSSISYIHWYQQKSGTSPKPWIYEIYKLASGVPPRFSGSGSGTSYSLTISSMEAEDAAIYYCQQWNYPFTFGSGTKLEIKR
notes: also called 3G2抗体; not shown: hinge and Fc of the mouse hybridoma antibody
- IC50 of cell survival (CCK8) of KIT ITD Ba/F3 cells [2]: 1.29 nM
